In patent publication JP2005168497A (dated 2005):

T1: TRAIL-R1-hFc (ヒトTRAIL-R1の細胞外領域とヒトIgG1のFc領域とが融合したタンパク質, ALEXIS社製) (human, UniProt O00220 24-239)
T1 construct: extracellular domain; Bought (ALEXIS); not shown: human IgG1 Fc region
T1 sequence (looked up): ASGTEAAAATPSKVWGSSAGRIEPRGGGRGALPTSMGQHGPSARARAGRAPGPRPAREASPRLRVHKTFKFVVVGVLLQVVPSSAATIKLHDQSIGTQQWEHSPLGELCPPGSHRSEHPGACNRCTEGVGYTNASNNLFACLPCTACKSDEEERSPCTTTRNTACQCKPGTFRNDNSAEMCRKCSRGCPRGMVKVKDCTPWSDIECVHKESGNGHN


Legend:
[1] = target: ヒトTRAIL-R2 (細胞表面の受容体; Colo205, U251, Jurkat, 正常ヒト肝実質細胞) (human, UniProt O14763 56-440); assay: cell-based or functional assay
[2] = target: T1, TRAIL-R1-hFc …; assay: ELISA, purified antibody on plate-coated TRAIL-R1-hFc (Example 4)

Binder	Jurkat細胞に対するLD50 (48時間) [1]	U251細胞に対するLD50 (シスプラチン4μg/ml同時添加, 48時間) [1]	binding result [2]
L-30-10抗体 (ハイブリドーマL-30-10, FERM BP-7700 / FERM BP-7769 の産生するヒト抗TRAIL-R2モノクローナル抗体) (antibody, V domains shown) VH: QLQLQESGPGLVKPSETLSLTCTVSGGSISSRSNYWGWIRQPPGKGLEWIGNVYYRGSTYYNSSLKSRVTISVDTSKNQFSLKLSSVTVADTAVYYCARLSVAEFDYWGQGILVTVSS VL: EIVLTQSPATLSLSPGERATLSCRASQSVSSFLAWYQQKPGQAPRLLIYDASNRATGSPARFSGSGSGTDFTLTISSLEPEDFAVYYCQQRSDWPLTFGPGTKVDIK	0.13 µg/mL	0.17 µg/mL	–
E-11-13抗体 (ハイブリドーマE-11-13, FERM BP-7698 / FERM BP-7770 の産生するヒト抗TRAIL-R2モノクローナル抗体) (antibody, V domains shown) VH: QLQLQESGPGLVKPSETLSLTCTVSGGSIISKSSYWGWIRQPPGKGLEWIGSIYYSGSTFYNPSLKSRVTISVDTSKNQFSLKLSSVTAADTAVYYCARLTVAEFDYWGQGTLVTVSS VL: EIVLTQSPATLSLSPGERATLSCRASQSVSSFLAWYQQKPGQAPRLLIYDASNRATGIPARFSGSGSGTDFTLTISSLEPEDFAVYYCQQRSNWPLTFGPGTKVDIK	0.1 µg/mL	0.3 µg/mL	–
KMTR1抗体 (ハイブリドーマKMTR1, FERM BP-8038 の産生するヒトモノクローナル抗体) (antibody, V domains shown, Human IgG, kappa light chain; Signal peptide limits are predictions, not N-terminal analysis) VH: EVQLLESGGGLVQPGRSLRLSCAASGFTFSSYAMSWVRQAPGKGLEWVSAISGSGGSRYYADSVKGRFTISRDNSKNTLYLQMNSLRAEDTAVYYCAKESSGWFGAFDYWGQGTLVTVSS VL: EIVLTQSPDFQSVTPKEKVTITCRASQSIGSSLHWYQQKPDQSPKLLIKYASQSFSGVPSRFSGSGSGTDFTLTINSLEAEDAAAYYCHQSSSLPITFGQGTRLEIK	–	–	binds
